Measured values as given in US11834472B2, “Anti-IL-22 antibodies, antibody fragments, their immunoconjugates and uses thereof” (BioAtla, Inc., priority 2018, dated 2023).
Like-named read-outs stand apart in the source and are kept apart here.

B1: CPS09: mutant anti-IL-22 antibody binding human and mouse IL-22; light chain LC-04, heavy chain HC-25 (antibody, V domains shown)
VH: QVQLVQSGAEVKKPGASVKVSCKASGYIFRSYWIHWIRQPPGKGLEWIGRIYPGTGRTYYNEKFKGRVTISADKSISTAYLQWSSLKASDTAMYYCARSYDYSVAYWGQGTLVTVSS
VL: AIQLTQSPSSLSASVGDRVTITCSASSSVSYMHWYLQKPGQSPQLLIYETRKLASGVPSRFSGSGSGTDFTFTISSLEAEDAATYYCQQWSSNPYITFGQGTKVEIKR
B2: CPS17: mutant anti-IL-22 antibody binding human and mouse IL-22; light chain LC-04, heavy chain HC-49 (antibody, V domains shown)
VH: QVQLVQSGAEVKKPGASVKVSCKASGYIFRSYWIHWIRQPPGKGLEWIGRIYPGTGNTYYNRKFKGRVTISADKSISTAYLQWSSLKASDTAMYYCARSYMYSVAYWGQGTLVTVSS
VL: AIQLTQSPSSLSASVGDRVTITCSASSSVSYMHWYLQKPGQSPQLLIYETRKLASGVPSRFSGSGSGTDFTFTISSLEAEDAATYYCQQWSSNPYITFGQGTKVEIKR
B3: LC-E049K: one of the mutant antibodies in the CPE library, used as a control (antibody, V domains shown)
VH: QVQLVQSGAEVKKPGASVKVSCKASGYIFTSYWIHWIRQPPGKGLEWIGRIYPGTGNTYYNEKFKGRVTISADKSISTAYLQWSSLKASDTAMYYCARSYDSSCAYWGQGTLVTVSS
VL: AIQLTQSPSSLSASVGDRVTITCSASSSVSYMHWYLQKPGQSPQLLIYKTSKLASGVPSRFSGSGSGTDFTFTISSLEAEDAATYYCQQWSSNPYITFGQGTKVEIKR
B4: CPS14 (antibody, V domains shown)
VH: QVQLVQSGAEVKKPGASVKVSCKASGYIFTSYWIHWIRQPPGKGLEWIGRIYPGTGRTYYNRKFKGRVTISADKSISTAYLQWSSLKASDTAMYYCARSYDYSVAYWGQGTLVTVSS
VL: AIQLTQSPSSLSASVGDRVTITCSASSSVSYMHWYLQKPGQSPQLLIYETRKLASGVPSRFSGSGSGTDFTFTISSLEAEDAATYYCQQWSSNPYITFGQGTKVEIKR
B5: CPS04: mutant anti-IL-22 antibody binding human and mouse IL-22; light chain LC-07, heavy chain HC-09 (antibody, V domains shown)
VH: QVQLVQSGAEVKKPGASVKVSCKASGYIFRSYWIHWIRQPPGKGLEWIGRIYPGTGNTYYNRKFKGRVTISADKSISTAYLQWSSLKASDTAMYYCARSYDSSVAYWGQGTLVTVSS
VL: AIQLTQSPSSLSASVGDRVTITCSASSSVSYMHWYLQKPGQSPQLLIYKTSKLLSGVPSRFSGSGSGTDFTFTISSLEAEDAATYYCQQWSSNPYITFGQGTKVEIKR

Legend:
[1] = Pharmacokinetics in NOD SCID mice, plasma concentration by solid phase ELISA; assay type: in vivo, mouse; settings: after a 10 mg/kg IV injection
Description: The pharmacokinetics of the mutant antibodies of Table 1 were analyzed in mice. The antibodies were injected into mice by IV injection at two doses 0.3 mg/kg and 10 mg/kg. The concentrations of the injected antibodies in the blood plasma were measured by solid phase ELISA.
Two anti-IL-22 antibodies CPS02 and CPS09 were tested in NOD SCID mice. The antibodies were injected via IV at two dosages: 0.3 mg/kg and 10 mg/kg. Three mice were used for each dose group. Blood samples were retrieved from the mice at 10 min, 1 h, 3 h 7 h, 24 h, 48 h, 96 h, 168 h, 240 h and 336 h after the IV injection. The concentrations of the injected antibodies in the blood samples were measured by solid phase ELISA.

[2] = Aggregate formation at 10 mg/mL in PBS; assay type: physicochemical
mouse IL-22 = target: T1, mouse IL-22 (Mus musculus, UniProt Q9JJY9); test: SPR capture assay, affinity to mouse IL-22; assay type: binding; settings: mouse IL-22, SPR
T1 sequence (Q9JJY9 34-179): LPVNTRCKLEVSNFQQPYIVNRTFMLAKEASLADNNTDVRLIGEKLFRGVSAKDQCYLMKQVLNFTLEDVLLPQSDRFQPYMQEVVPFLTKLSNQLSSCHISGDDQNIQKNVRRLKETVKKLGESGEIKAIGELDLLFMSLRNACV
Description: (§1) The affinity of the 10 antibodies of Table 1 was measured by Surface Plasma Resonance (SPR) using a capture assay in PBS buffer to generate binding curves at four different concentrations of each antibody (0.05, 0.1, 0.5, and 1.0 μg/ml). The Ka, Kd and KD values for the mutant antibodies were calculated from the curves for each of the antibodies.
(§2) The affinity of the 10 antibodies of Table 1 was measured by Surface Plasma Resonance (SPR) using a capture assay on a SPR-2 instrument (SierraSensiors, Hamburg, Germany). The antigens hIL-22 and mIL-22 were immobilized on chips. The running buffer for the assay contained 10 mM HEPES with a pH of 7.4, 500 mM NaCl, and 0.05% TWEEN® 20. […] The off-rate was measured for 6 minutes. Binding constants were calculated using the curve fitting software Analyzer2 (Sierra Sensors). Sensorgrams were analyzed with the instrument specific software and with BIAevaluation 4.1 software. The binding data were analyzed using the Langmuir 1:1 model (human IL-22) or a model for a heterogeneous ligand ([…]).
(§3) The antibodies were tested at four different concentrations of each antibody: 0.33 nM, 0.67 nM, 3.3 nM, 6.7 nM for hIL-22; 1, 2, […] for mIL-22. Antibody CPE-LC-E049K was used as a control.

mouse IL-22 (mIL-22) = target: T2, mouse IL-22 (mIL-22) (Mus musculus, UniProt Q9JJY9); test: Inhibition of mIL-22 induced Stat3 phosphorylation in HepG2 cells; assay type: cell-based; settings: mAb 6.7 nM
T2 sequence (Q9JJY9 34-179): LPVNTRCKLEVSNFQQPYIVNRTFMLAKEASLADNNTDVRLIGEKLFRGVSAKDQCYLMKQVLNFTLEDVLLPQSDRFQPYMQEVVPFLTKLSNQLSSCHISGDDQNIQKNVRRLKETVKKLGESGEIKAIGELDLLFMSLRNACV
Description: One of the immediate functions of IL-22 is inducing phosphorylation of Stat3, a protein in the signaling pathway of IL-22. The 10 antibodies of Table 1 were tested in a cell-based assay for blocking IL-22-dependent phosphorylation of Stat3 through human or mouse IL-22 in HepG2 cells. Antibody hum10 and mutant CPE-LC-E049K were used as controls. Four concentrations of each of the antibodies were used: 0.11 μg/mL, 0.33 μg/mL, 1 μg/mL, and 3 μg/mL.
30,000 human HepG2 cells were seeded in 96 well plates and serum starved overnight. Three-fold dilutions of anti-IL-22 antibodies and control hum10 antibody at concentrations of 0.11 μg/mL, 0.33 μg/mL, 1 μg/mL, and 3 μg/mL were incubated with 200 ng/ml of hIL-22 or mIL-22 at 37° C. for one hour then added to the serum starved human HepG2 cells. The HepG2 cells were incubated with the antibody-IL-22 mixture at 37° C. for 20 minutes. After incubation, HepG2 cells were washed with PBS and lysed. Half of the cell lysate was used to determine the level of phosphorylated Stat3 using Cell Signaling kit #7300 following the vendor's protocol and the other half of the cell lysate was used to determine the level of total Stat3 by Western blot analysis using a Santa Cruz rabbit polyclonal antibody (Sc-7179) against human Stat3.

[3] = test system: imiquimod (IMQ) induced psoriasis; assay type: in vivo; settings: for reduction in body weight of the treated mice: days 0-7, in comparison to dexamethasone / PBS (FIG. 13)
Source text: Two anti-IL-22 antibodies of the present invention, CPS02 and CPS09, were used for the treatment of imiquimod (IMQ) induced psoriasis in mice (FIG. 12). The mice were male BALB/c mice, which were an albino, laboratory-bred strain of the house mouse. A total of 70 mice, at a body weight of 18-20 g, were acclimated for 7 days before induction of psoriasis.
The 70 mice were randomized into 7 groups (10 mice in each group). One group (group 1) was used as a negative control to which no imiquimod was administered to the mice, which was instead replaced with Vaseline. […] The other 6 groups (groups 2-7) were dosed topically with imiquimod at a dosage of 82.5 mg/mouse (5% cream) once daily (qd) for 8 consecutive days from day 0 to day 7 (20 mg for the left ear, 62.5 mg for the shaved back) to induce psoriasis. The back skin was shaved to expose an area of 2×3 cm^2. For the Vaseline control group, the Vaseline was also applied at 82.5 mg/mouse once daily (qd) for 8 consecutive days (20 mg for left ear, 62.5 mg for the shaved back) from day 0 to day 7.
Group 2 was a group of psoriasis-induced mice that were untreated to serve as a control group. The treatment period completely overlapped with the imiquimod application period (day 0 to day 7). For group 2, the mice received both imiquimod and […] on each day of the 8-day period (day 0 to day 7). For the groups that received intravenous (I.V.) injection, the imiquimod was applied within one hour after the I.V. injection on days 0 and 3.
Group 3 was treated with the steroid dexamethasone, which is a current therapeutic treatment used for psoriasis. The dexamethasone was topically applied twice a day (BID) for 8 days. Group 4 was treated with phosphate-buffered saline (PBS), which served as a negative control. Group 5 was treated with an isotype control antibody that also served as a negative control. Groups 6-7 were treated with the anti-IL22 antibodies CPS02 (A) and CPS09 (B), respectively. The treatments for Groups 4-7 were administered by a single intravenous (I.V.) injection on each of days 0 and 3. 3 mice in group 6 died on day 0 and 2 died on day 1. On day 3, the I.V. injection dosage for this group was decreased to 10 mg/kg.
During the 8 day treatment period, the ear thickness was measured on days 0, 3, 5 and 7. The body weight and various skin scores were recorded daily. Pictures of the psoriasis sites were taken on days 0, 3, 5 and 7. On days 1 and 4, about 60 μl blood was collected via retro-orbital bleeding over 24 hours and placed in BD Microtainer® tubes coated with dipotassium ethylenediaminetetraacetic acid (K2EDTA). Plasma was then collected (to get at least 20 μl plasma) and stored at −80° C.
Skin scores for erythema, scales and thickness were measured daily according to an established grading system. The erythema, scales and thickness were scored independently on a scale of from 0 to 4: 0 means none, 1 means slight, 2 means moderate, 3 means marked, and 4 means very marked. The cumulative (total) skin score was also calculated.
The effects of the treatments were analyzed statistically using two-way analysis of variance (ANOVA, Bonferroni post-tests) or one-way ANOVA analysis. For comparisons between the treatment groups and the control group, the p value is denoted in FIGS. 13-18 as (*) if less than 0.05, (**) if less than 0.01, or (***) if less than 0.001.

Thermostability = assay type: physicochemical
human IL-22 = target: T3, human IL-22 (Homo sapiens, UniProt Q9GZX6); test: SPR capture assay, affinity to human IL-22; assay type: binding; settings: human IL-22, SPR
T3 sequence (Q9GZX6 34-179): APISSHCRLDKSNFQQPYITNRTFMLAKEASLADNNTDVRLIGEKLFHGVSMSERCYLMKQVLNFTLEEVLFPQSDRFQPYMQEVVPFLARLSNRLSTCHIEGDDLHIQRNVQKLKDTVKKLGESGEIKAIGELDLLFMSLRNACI
Description: as §1, §2, §3

Molecule | half-life in mice [1] | Aggregate formation at 10 mg/mL in PBS [2] | ka (mouse IL-22) [M·s] | kd (mouse IL-22) [s⁻¹] | STAT3 Phosphorylation; mIL22 % inhibition (mouse IL-22 (mIL-22)) [%] | effect in treating psoriasis in the mouse model (summary) ([3]; IMQ psoriasis mice) | reduction in body weight of the treated mice ([3]; IMQ psoriasis mice) | reduction in body weight of the treated mice ([3]; IMQ psoriasis mice, listed as CSP09) | side effect (summary) ([3]; in comparison with the known treatment (dexamethasone)) | ear skin thickness ([3]; vs negative controls (isotype matched antibody, PBS, vehicle) (FIG. 14)) | skin erythema score ([3]; vs negative controls (isotype matched antibody, PBS, vehicle) (FIG. 15)) | skin scale score ([3]; vs negative controls (isotype matched antibody, PBS, vehicle) (FIG. 16)) | skin thickness ([3]; vs negative controls (isotype matched antibody, PBS, vehicle) (FIG. 17)) | Thermostability (% remaining activity 60 min); of duplicate samples (Thermostability) [%] | ka (human IL-22) [M·s] | kd (human IL-22) [s⁻¹]
B1 | about 16 hours | no | 194000 | 0.000768 | 63.12 | especially effective in treating psoriasis | less reduction in body weight | reduction in body weight similar to the PBS buffer negative control | only a minimal side effect | less | lower | lower | lower | 102 | 860000 | 2.18e-05
B2 |  |  | 252000 | 0.00158 |  |  |  |  |  |  |  |  |  |  | 1.33e+06 | 6.94e-05
B3 |  |  | 34100 | 0.00137 |  |  |  |  |  |  |  |  |  |  | 381000 | 5.93e-05
B4 |  |  | 256000 | 0.00123 |  |  |  |  |  |  |  |  |  |  | 1.13e+06 | 3.55e-05
B5 |  |  | 279000 | 0.00118 |  |  |  |  |  |  |  |  |  |  | 1.28e+06 | 3.74e-05
